Measurements published in article PMC11237551, “MRS2 missense variation at Asp216 abrogates inhibitory Mg^2+ binding, potentiating cell migration and apoptosis resistance” (Protein Science : A Publication of the Protein Society, 2024).

How the values were obtained:
[1] = biological target: the molecule itself; test: AUC; sedimentation equilibrium, 1.25 mg/mL protein, with 5 mM MgCl2, 20°C, 20 mM Tris, 150 mM NaCl, 1 mM DTT, pH 8.0; global fit of 8000, 12,000, 16,000 and 20,000 rpm; dimer to monomers
[2] = biological target: the molecule itself; test: AUC; sedimentation equilibrium, 0.625 mg/mL protein, with 5 mM MgCl2, 20°C, 20 mM Tris, 150 mM NaCl, 1 mM DTT, pH 8.0; global fit of 8000, 12,000, 16,000 and 20,000 rpm; dimer to monomers
[3] = biological target: the molecule itself; test: AUC; sedimentation equilibrium, 0.313 mg/mL protein, no Mg2+, 20°C, 20 mM Tris, 150 mM NaCl, 1 mM DTT, pH 8.0; global fit of 8000, 12,000, 16,000 and 20,000 rpm; dimer to monomers
[4] = biological target: the molecule itself; test: SEC-MALS; Superdex 200 Increase 10/300 GL, 100 uL injected at 2.5 mg/mL, 20 mM Tris pH 8, 150 mM NaCl, 1 mM DTT, ~10°C, buffer nominally free of Mg2+
[5] = biological target: the molecule itself; test: AUC; sedimentation equilibrium, 1.25 mg/mL protein, no Mg2+, 20°C, 20 mM Tris, 150 mM NaCl, 1 mM DTT, pH 8.0; global fit of 8000, 12,000, 16,000 and 20,000 rpm; dimer to monomers
[6] = biological target: the molecule itself; test: AUC; sedimentation equilibrium, 0.313 mg/mL protein, with 5 mM MgCl2, 20°C, 20 mM Tris, 150 mM NaCl, 1 mM DTT, pH 8.0; global fit of 8000, 12,000, 16,000 and 20,000 rpm; dimer to monomers
[7] = biological target: the molecule itself; test: AUC; sedimentation equilibrium, 0.625 mg/mL protein, no Mg2+, 20°C, 20 mM Tris, 150 mM NaCl, 1 mM DTT, pH 8.0; global fit of 8000, 12,000, 16,000 and 20,000 rpm; dimer to monomers

Row | Protein | Kd [1] [µM] | stoichiometry N [1] | Kd [2] [µM] | stoichiometry N [2] | Kd [3] [µM] | stoichiometry N [3] | stoichiometry N [4] | Kd [5] [µM] | stoichiometry N [5] | Kd [6] [µM] | stoichiometry N [6] | Kd [7] [µM] | stoichiometry N [7]
1 | human MRS2 amino terminal domain, residues 58-333 (MRS2_(58‐333)), wild type (domain or fragment, UniProt Q9HD23-1 58-333, looked up, Mitochondrial RNA splicing protein 2 (MRS2), human, amino terminal (matrix) domain, residues 58-333 of NCBI NP_065713.1 (pre-protein numbering); theoretical monomer 32.5 kDa including cloning artifacts; Surmise: E. coli, His tag removed by protease; also called MRS2‐NTD; WT; source: recombinantly expressed and purified, as described previously (Uthayabalan et al., 2023)) DRLRVAGEVHRFRTSDVSQATLASVAPVFTVTKFDKQGNVTSFERKKTELYQELGLQARDLRFQHVMSITVRNNRIIMRMEYLKAVITPECLLILDYRNLNLEQWLFRELPSQLSGEGQLVTYPLPFEFRAIEALLQYWINTLQGKLSILQPLILETLDALVDPKHSSVDRSKLHILLQNGKSLSELETDIKIFKESILEILDEEELLEELCVSKWSDPQVFEKSSAGIDHAEEMELLLENYYRLADDLSNAARELRVLIDDSQSIIFINLDSHRN | 55.4 | 1.5 | 146 | 1.1 | 17.4 | 1.7 | 2 | 16.4 | 1.7 | 1760 | 1 | 24.3 | 1.6
2 | human MRS2 amino terminal domain, residues 58-333, E261Q mutant (MRS2_(58‐333)‐E261Q) (domain or fragment, UniProt Q9HD23-1 58-333, looked up, construct details in Uthayabalan et al., 2023; also called MRS2‐NTD‐E261Q; source: recombinantly expressed and purified as described for MRS2_(58‐333) (Uthayabalan et al., 2023)) DRLRVAGEVHRFRTSDVSQATLASVAPVFTVTKFDKQGNVTSFERKKTELYQELGLQARDLRFQHVMSITVRNNRIIMRMEYLKAVITPECLLILDYRNLNLEQWLFRELPSQLSGEGQLVTYPLPFEFRAIEALLQYWINTLQGKLSILQPLILETLDALVDPKHSSVDRSKLHILLQNGKSLSELETDIKIFKESILEILDQEELLEELCVSKWSDPQVFEKSSAGIDHAEEMELLLENYYRLADDLSNAARELRVLIDDSQSIIFINLDSHRN |  |  |  |  |  |  | 2 |  |  |  |  |  | 
3 | human MRS2 amino terminal domain, residues 58-333, D216Q mutant (MRS2_(58‐333)‐D216Q) (domain or fragment, UniProt Q9HD23-1 58-333, looked up, theoretical monomer 32,517 Da; construct details in Uthayabalan et al., 2023; also called MRS2‐NTD‐D216Q; source: recombinantly expressed and purified as described for MRS2_(58‐333) (Uthayabalan et al., 2023)) DRLRVAGEVHRFRTSDVSQATLASVAPVFTVTKFDKQGNVTSFERKKTELYQELGLQARDLRFQHVMSITVRNNRIIMRMEYLKAVITPECLLILDYRNLNLEQWLFRELPSQLSGEGQLVTYPLPFEFRAIEALLQYWINTLQGKLSILQPLILETLQALVDPKHSSVDRSKLHILLQNGKSLSELETDIKIFKESILEILDEEELLEELCVSKWSDPQVFEKSSAGIDHAEEMELLLENYYRLADDLSNAARELRVLIDDSQSIIFINLDSHRN | 33.6 | 1.6 | 22.2 | 1.8 |  |  |  |  |  | 11.2 | 2 |  | 
